From paper PMC4521584 come the findings set out here.

Positions count from the first letter of the chain named. Numbers in names are those of the source.

By Km is commonly meant the concentration of substrate that gives half-maximal velocity. The kcat is the maximal rate divided by the concentration of active sites.

Substrate in the series: Nc1ncnc2c1ncn2[C@@H]1O[C@H](COP(=O)(O)OP(=O)(O)OP(=O)(O)O)[C@@H](O)[C@H]1O
The series can be described thus: ATPase assay coupled to NADH oxidation. The conditions noted are these: 5 μM MutS, 3.125-500 μM ATP. The format is biochemical, Escherichia coli.

B1: WT MutS (Escherichia coli K-12) (protein)
chain: MSAIENFDAHTPMMQQYLRLKAQHPEILLFYRMGDFYELFYDDAKRASQLLDISLTKRGASAGEPIPMAGIPYHAVENYLAKLVNQGESVAICEQIGDPATSKGPVERKVVRIVTPGTISDEALLQERQDNLLAAIWQDSKGFGYATLDISSGRFRLSEPADRETMAAELQRTNPAELLYAEDFAEMSLIEGRRGLRRRPLWEFEIDTARQQLNLQFGTRDLVGFGVENAPRGLCAAGCLLQYAKDTQRTTLPHIRSITMEREQDSIIMDAATRRNLEITQNLAGGAENTLASVLDCTVTPMGSRMLKRWLHMPVRDTRVLLERQQTIGALQDFTAGLQPVLRQVGDLERILARLALRTARPRDLARMRHAFQQLPELRAQLETVDSAPVQALREKMGEFAELRDLLERAIIDTPPVLVRDGGVIASGYNEELDEWRALADGATDYLERLEVRERERTGLDTLKVGFNAVHGYYIQISRGQSHLAPINYMRRQTLKNAERYIIPELKEYEDKVLTSKGKALALEKQLYEELFDLLLPHLEALQQSASALAELDVLVNLAERAYTLNYTCPTFIDKPGIRITEGRHPVVEQVLNEPFIANPLNLSPQRRMLIITGPNMGGKSTYMRQTALIALMAYIGSYVPAQKVEIGPIDRIFTRVGAADDLASGRSTFMVEMTETANILHNATEYSLVLMDEIGRGTSTYDGLSLAWACAENLANKIKALTLFATHYFELTQLPEKMEGVANVHLDALEHGDTIAFMHSVQDGAASKSYGLAVAALAGVPKEVIKRARQKLRELESISPNAAATQVDGTQMSLLSVPEETSPAVEALENLDPDSLTPRQALEWIYRLKSLV
notes: full-length MutS from mutS gene in pET-3D, recombinant, purified; homodimer (can form tetramers)
On to B1, for which the Km is 8.1 ± 0.7 µM and the kcat worked out at 8.3 ± 0.2 min⁻¹.

B2: WT MutS (Escherichia coli K-12; I597A/M759D/P595A) (protein)
chain: B1 chain with P595A, I597A, M759D
notes: as for B1
For B2, the Km is 9.5 ± 1 µM and the kcat turned out to be 3.8 ± 0.1 min⁻¹.
